Laboratory results as given in patent US20180289842A1.

Target: albumin
Experiment: albumin binding constant (K), same method as the earlier dye-albumin study; method not described

LS838: Cypate-Cyclo(DCys-Gly-Arg-Asp-Ser-Pro-Cys)-Tyr-OH (peptide)
Ka: 86000 M⁻¹
